T1: GST-ΔIBB-importin α3 (human, UniProt O00629 59-521)
T1 construct: human importin α3 lacking the N-terminal IBB domain; also called GST-tagged importin α3 (lacking the IBB); source: E. coli BL21(DE3) AI or BL21(DE3), pGEX-6P, purified (glutathione resin); not shown: GST, N-terminal, kept
T1 sequence (looked up): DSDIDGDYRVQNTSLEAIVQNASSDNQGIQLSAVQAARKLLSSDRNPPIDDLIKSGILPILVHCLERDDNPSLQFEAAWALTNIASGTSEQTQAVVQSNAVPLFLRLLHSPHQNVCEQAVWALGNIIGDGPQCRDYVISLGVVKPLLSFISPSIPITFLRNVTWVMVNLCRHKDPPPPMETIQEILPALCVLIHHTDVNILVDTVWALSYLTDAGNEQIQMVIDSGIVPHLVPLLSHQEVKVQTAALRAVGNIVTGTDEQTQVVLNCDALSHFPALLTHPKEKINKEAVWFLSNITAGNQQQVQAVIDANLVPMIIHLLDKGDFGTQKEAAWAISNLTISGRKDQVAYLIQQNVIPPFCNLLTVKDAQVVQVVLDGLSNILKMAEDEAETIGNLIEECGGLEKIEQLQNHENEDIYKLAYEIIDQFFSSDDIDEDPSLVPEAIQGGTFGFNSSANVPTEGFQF

T2: GST-RCC1 (full-length human RCC1, wild type) (human, UniProt P18754 1-421)
T2 construct: human RCC1, predominant isoform RCC1α, synthetic gene (GenScript); β-propeller printed as residues 30–421; Used in the syringe for ITC (methods say GST-RCC1); also called full length GST-RCC1; WT GST-RCC1; source: E. coli BL21(DE3) AI or BL21(DE3), pGEX-6P, glutathione resin; not shown: GST, N-terminal, kept
T2 sequence (looked up): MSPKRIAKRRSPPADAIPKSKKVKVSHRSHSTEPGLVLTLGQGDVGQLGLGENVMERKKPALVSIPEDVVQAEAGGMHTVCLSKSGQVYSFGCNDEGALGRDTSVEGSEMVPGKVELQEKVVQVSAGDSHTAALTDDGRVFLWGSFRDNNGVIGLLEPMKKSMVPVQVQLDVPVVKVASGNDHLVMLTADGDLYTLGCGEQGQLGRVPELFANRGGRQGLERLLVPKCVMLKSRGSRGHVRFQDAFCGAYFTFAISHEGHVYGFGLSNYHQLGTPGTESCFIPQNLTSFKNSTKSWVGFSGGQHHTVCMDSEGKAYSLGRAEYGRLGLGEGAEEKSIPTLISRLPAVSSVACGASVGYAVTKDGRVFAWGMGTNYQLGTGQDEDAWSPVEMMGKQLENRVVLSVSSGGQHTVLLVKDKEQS

T3: ΔIBB-Kap60 (co-expressed with yeast GST-RCC1) (Saccharomyces cerevisiae, UniProt Q02821 66-542)
T3 construct: yeast importin α Kap60 lacking the N-terminal IBB domain; the methods say ΔIBB-Kap60; source: E. coli BL21-AI, co-expressed with yeast GST-RCC1, purified as complex (glutathione beads, PreScission, SEC)
T3 sequence (looked up): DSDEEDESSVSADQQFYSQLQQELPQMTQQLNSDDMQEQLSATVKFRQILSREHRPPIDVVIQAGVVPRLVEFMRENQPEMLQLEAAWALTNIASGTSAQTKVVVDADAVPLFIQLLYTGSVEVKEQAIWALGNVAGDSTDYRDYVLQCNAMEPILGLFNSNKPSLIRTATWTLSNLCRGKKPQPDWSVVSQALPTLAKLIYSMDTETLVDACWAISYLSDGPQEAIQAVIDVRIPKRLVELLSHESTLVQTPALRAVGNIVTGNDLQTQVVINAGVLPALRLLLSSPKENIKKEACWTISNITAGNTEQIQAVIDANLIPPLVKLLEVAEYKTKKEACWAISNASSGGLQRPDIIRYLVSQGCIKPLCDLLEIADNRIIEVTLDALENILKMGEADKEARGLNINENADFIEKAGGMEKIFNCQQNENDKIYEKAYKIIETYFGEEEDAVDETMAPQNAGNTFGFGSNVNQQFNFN

B1: RCC1 (human, wild type, free protein) (natural protein, UniProt P18754 1-421, looked up)
chain: MSPKRIAKRRSPPADAIPKSKKVKVSHRSHSTEPGLVLTLGQGDVGQLGLGENVMERKKPALVSIPEDVVQAEAGGMHTVCLSKSGQVYSFGCNDEGALGRDTSVEGSEMVPGKVELQEKVVQVSAGDSHTAALTDDGRVFLWGSFRDNNGVIGLLEPMKKSMVPVQVQLDVPVVKVASGNDHLVMLTADGDLYTLGCGEQGQLGRVPELFANRGGRQGLERLLVPKCVMLKSRGSRGHVRFQDAFCGAYFTFAISHEGHVYGFGLSNYHQLGTPGTESCFIPQNLTSFKNSTKSWVGFSGGQHHTVCMDSEGKAYSLGRAEYGRLGLGEGAEEKSIPTLISRLPAVSSVACGASVGYAVTKDGRVFAWGMGTNYQLGTGQDEDAWSPVEMMGKQLENRVVLSVSSGGQHTVLLVKDKEQS
notes: human RCC1, predominant isoform RCC1α, synthetic gene; also called free RCC1; WT RCC1; source: E. coli BL21(DE3) AI or BL21(DE3), purified
B2: RCC1-K21A (natural protein, human, UniProt P18754 1-421, looked up)
chain: MSPKRIAKRRSPPADAIPKSAKVKVSHRSHSTEPGLVLTLGQGDVGQLGLGENVMERKKPALVSIPEDVVQAEAGGMHTVCLSKSGQVYSFGCNDEGALGRDTSVEGSEMVPGKVELQEKVVQVSAGDSHTAALTDDGRVFLWGSFRDNNGVIGLLEPMKKSMVPVQVQLDVPVVKVASGNDHLVMLTADGDLYTLGCGEQGQLGRVPELFANRGGRQGLERLLVPKCVMLKSRGSRGHVRFQDAFCGAYFTFAISHEGHVYGFGLSNYHQLGTPGTESCFIPQNLTSFKNSTKSWVGFSGGQHHTVCMDSEGKAYSLGRAEYGRLGLGEGAEEKSIPTLISRLPAVSSVACGASVGYAVTKDGRVFAWGMGTNYQLGTGQDEDAWSPVEMMGKQLENRVVLSVSSGGQHTVLLVKDKEQS
notes: human RCC1 (RCC1α) with K21A; also called P2 mutant; source: E. coli BL21(DE3) AI or BL21(DE3), purified
B3: RCC1-S11E (natural protein, human, UniProt P18754 1-421, looked up)
chain: MSPKRIAKRREPPADAIPKSKKVKVSHRSHSTEPGLVLTLGQGDVGQLGLGENVMERKKPALVSIPEDVVQAEAGGMHTVCLSKSGQVYSFGCNDEGALGRDTSVEGSEMVPGKVELQEKVVQVSAGDSHTAALTDDGRVFLWGSFRDNNGVIGLLEPMKKSMVPVQVQLDVPVVKVASGNDHLVMLTADGDLYTLGCGEQGQLGRVPELFANRGGRQGLERLLVPKCVMLKSRGSRGHVRFQDAFCGAYFTFAISHEGHVYGFGLSNYHQLGTPGTESCFIPQNLTSFKNSTKSWVGFSGGQHHTVCMDSEGKAYSLGRAEYGRLGLGEGAEEKSIPTLISRLPAVSSVACGASVGYAVTKDGRVFAWGMGTNYQLGTGQDEDAWSPVEMMGKQLENRVVLSVSSGGQHTVLLVKDKEQS
notes: human RCC1 (RCC1α) with the phospho-mimetic S11E; also called phospho-mimetic RCC1-S11E; source: E. coli BL21(DE3) AI or BL21(DE3), purified
B4: RCC1-R9A/K21A (natural protein, human, UniProt P18754 1-421, looked up)
chain: MSPKRIAKARSPPADAIPKSAKVKVSHRSHSTEPGLVLTLGQGDVGQLGLGENVMERKKPALVSIPEDVVQAEAGGMHTVCLSKSGQVYSFGCNDEGALGRDTSVEGSEMVPGKVELQEKVVQVSAGDSHTAALTDDGRVFLWGSFRDNNGVIGLLEPMKKSMVPVQVQLDVPVVKVASGNDHLVMLTADGDLYTLGCGEQGQLGRVPELFANRGGRQGLERLLVPKCVMLKSRGSRGHVRFQDAFCGAYFTFAISHEGHVYGFGLSNYHQLGTPGTESCFIPQNLTSFKNSTKSWVGFSGGQHHTVCMDSEGKAYSLGRAEYGRLGLGEGAEEKSIPTLISRLPAVSSVACGASVGYAVTKDGRVFAWGMGTNYQLGTGQDEDAWSPVEMMGKQLENRVVLSVSSGGQHTVLLVKDKEQS
notes: human RCC1 (RCC1α) with R9A and K21A; also called P2/P2′ double mutant; source: E. coli BL21(DE3) AI or BL21(DE3), purified
B5: RCC1-R9A (natural protein, human, UniProt P18754 1-421, looked up)
chain: MSPKRIAKARSPPADAIPKSKKVKVSHRSHSTEPGLVLTLGQGDVGQLGLGENVMERKKPALVSIPEDVVQAEAGGMHTVCLSKSGQVYSFGCNDEGALGRDTSVEGSEMVPGKVELQEKVVQVSAGDSHTAALTDDGRVFLWGSFRDNNGVIGLLEPMKKSMVPVQVQLDVPVVKVASGNDHLVMLTADGDLYTLGCGEQGQLGRVPELFANRGGRQGLERLLVPKCVMLKSRGSRGHVRFQDAFCGAYFTFAISHEGHVYGFGLSNYHQLGTPGTESCFIPQNLTSFKNSTKSWVGFSGGQHHTVCMDSEGKAYSLGRAEYGRLGLGEGAEEKSIPTLISRLPAVSSVACGASVGYAVTKDGRVFAWGMGTNYQLGTGQDEDAWSPVEMMGKQLENRVVLSVSSGGQHTVLLVKDKEQS
notes: human RCC1 (RCC1α) with R9A; also called P2′ mutant; source: E. coli BL21(DE3) AI or BL21(DE3), purified
B6: Δ5-RCC1 (domain or fragment, human, UniProt P18754 6-421, looked up)
chain: IAKRRSPPADAIPKSKKVKVSHRSHSTEPGLVLTLGQGDVGQLGLGENVMERKKPALVSIPEDVVQAEAGGMHTVCLSKSGQVYSFGCNDEGALGRDTSVEGSEMVPGKVELQEKVVQVSAGDSHTAALTDDGRVFLWGSFRDNNGVIGLLEPMKKSMVPVQVQLDVPVVKVASGNDHLVMLTADGDLYTLGCGEQGQLGRVPELFANRGGRQGLERLLVPKCVMLKSRGSRGHVRFQDAFCGAYFTFAISHEGHVYGFGLSNYHQLGTPGTESCFIPQNLTSFKNSTKSWVGFSGGQHHTVCMDSEGKAYSLGRAEYGRLGLGEGAEEKSIPTLISRLPAVSSVACGASVGYAVTKDGRVFAWGMGTNYQLGTGQDEDAWSPVEMMGKQLENRVVLSVSSGGQHTVLLVKDKEQS
notes: human RCC1 (RCC1α) with the first five residues deleted; source: E. coli BL21(DE3) AI or BL21(DE3), purified
B7: ΔIBB-importin α3 (as used for ITC) (domain or fragment)
chain: not shown
modifications: Limits not given; taken from the ΔIBB-importin α3 entity of PDB 4UAE (Met + 420 residues, starting VQNTS), which fits the expected complex MW of ~91.2 kDa. A construct running to 521 is possible.
B8: Δ10-RCC1 (domain or fragment, human, UniProt P18754 11-421, looked up)
chain: SPPADAIPKSKKVKVSHRSHSTEPGLVLTLGQGDVGQLGLGENVMERKKPALVSIPEDVVQAEAGGMHTVCLSKSGQVYSFGCNDEGALGRDTSVEGSEMVPGKVELQEKVVQVSAGDSHTAALTDDGRVFLWGSFRDNNGVIGLLEPMKKSMVPVQVQLDVPVVKVASGNDHLVMLTADGDLYTLGCGEQGQLGRVPELFANRGGRQGLERLLVPKCVMLKSRGSRGHVRFQDAFCGAYFTFAISHEGHVYGFGLSNYHQLGTPGTESCFIPQNLTSFKNSTKSWVGFSGGQHHTVCMDSEGKAYSLGRAEYGRLGLGEGAEEKSIPTLISRLPAVSSVACGASVGYAVTKDGRVFAWGMGTNYQLGTGQDEDAWSPVEMMGKQLENRVVLSVSSGGQHTVLLVKDKEQS
notes: human RCC1 (RCC1α) lacking the entire minor NLS box; source: E. coli BL21(DE3) AI or BL21(DE3), purified
B9: yRCC1 (yeast RCC1, cleaved from GST, in the purified Kap60:yRCC1 complex) (natural protein, Saccharomyces cerevisiae (strain S288C))
chain: MVKRTVATNGDASGAHRAKKMSKTHASHIINAQEDYKHMYLSVQPLDIFCWGTGSMCELGLGPLAKNKEVKRPRLNPFLPRDEAKIISFAVGGMHTLALDEESNVWSWGCNDVGALGRDTSNAKEQLKDMDADDSSDDEDGDLNELESTPAKIPRESFPPLAEGHKVVQLAATDNMSCALFSNGEVYAWGTFRCNEGILGFYQDKIKIQKTPWKVPTFSKYNIVQLAPGKDHILFLDEEGMVFAWGNGQQNQLGRKVMERFRLKTLDPRPFGLRHVKYIASGENHCFALTKDNKLVSWGLNQFGQCGVSEDVEDGALVTKPKRLALPDNVVIRSIAAGEHHSLILSQDGDLYSCGRLDMFEVGIPKDNLPEYTYKDVHGKARAVPLPTKLNNVPKFKSVAAGSHHSVAVAQNGIAYSWGFGETYAVGLGPFEDDTEVPTRIKNTATQDHNIILVGCGGQFSVSGGVKLSDEDAEKRADEMDD
notes: Saccharomyces cerevisiae RCC1 homolog Prp20p, amplified from a genomic library of strain S288C; also called Prp20p; source: E. coli BL21-AI, co-expressed with ΔIBB-Kap60, cleaved off glutathione beads with PreScission Protease, SEC; not shown: GST, N-terminal, cleaved

Columns and labels:
Settings in all cases: both partners purified
GST-ΔIBB-importin α3 = molecular target: T1, GST-ΔIBB-importin α3; test: pull-down; purified GST-ΔIBB-importin α3 or GST-ΔIBB-Kap60 (1 µM) pre-incubated with RCC1/yRCC1 (0.75 µM) ~60 min at 4 °C, then bound to glutathione beads, washed three times, eluted with 25 mM reduced glutathione; SDS-PAGE, Coomassie, quantified in triplicate, WT = 100%
[1] = molecular target: T2, GST-RCC1 (full-length human RCC1, wild …); test: ITC; nano-ITC, 20 °C; GST-RCC1 (300 µM) injected in 2.0 µl increments into 195 µl of ΔIBB-importin α3 or α1 (100 µM); 20 mM Tris-HCl pH 8.0, 150 mM NaCl, 5 mM BME, 0.1 mM PMSF; single set of binding sites model; triplicate
[2] = molecular target: T3, ΔIBB-Kap60 (co-expressed with yeast …); test: SEC-SAXS; Kap60:yRCC1 complex at 5.0 mg ml^-1 on Superose 12 10/300 GL; 20 mM Tris-HCl pH 7.5, 150 mM NaCl, 5% glycerol, 3 mM BME; frames 710–750

| Binder | reduction of binding relative to WT RCC1 (GST-ΔIBB-importin α3) [%] | also measured |
| --- | --- | --- |
| B1 |  | stoichiometry N (GST-ΔIBB-importin α3): 1 |
| B2 | 25 |  |
| B3 | ~10 |  |
| B4 | ~85 |  |
| B5 | 25 |  |
| B6 | ~10 |  |
| B7 |  | Kd [1]: 620 ± 100 nM |
| B8 | ~60 |  |
| B9 |  | stoichiometry N [2]: 1 |

— article PMC5645467, “Three-dimensional context rather than NLS amino acid sequence determines importin α subtype specificity for RCC1” (Nature Communications, 2017)
